Reference: paper PMC11437398

Target: rabies virus glycoprotein (G) (rabies virus (strain CVS-27)) (UniProt O92284)
Test: cryo-electron tomography

**Q.** “rabies virus glycoprotein (G) (from UniProt O92284 20-524) (natural protein)” was tested. Which stoichiometry N did it give?
**A.** 3
